Data as given in patent US20250164464A1, “LIVER ORGANOID-DERIVED CULTURED HEPATOCYTES” (OSAKA UNIVERSITY, priority 2022, published 2025).

Key:
CYP1A2 = assay: Induction of drug-metabolizing enzyme in hepatocytes (2D differentiated cells) (Example 6); format: cell-based, human; conditions: 50 μM for 24 hours; added on third, sixth or ninth day of culture; control DMSO
Method: (§1) In this Example, the hepatocytes (2D differentiated cells) of the present invention were evaluated for the induction of a drug-metabolizing enzyme on the third day, sixth day, and ninth day of their culture (FIG. 6A). […] After that, the ΔCt value ((Ct value of GAPDH)-(Ct value of target gene)) of each CYP gene was measured for each cell. As a control, dimethylsulfoxide (DMSO) serving as a solvent for each metabolizing enzyme activator was added thereto.

CYP2B6 = assay: as above; conditions: 1 mM for 24 hours; added on third, sixth or ninth day of culture; control DMSO
Method: as §1

hepatic organoid cells [1] = assay: Screening of monolayer culture conditions, ninth day of culture, quantitative RT-PCR (Example 4); format: cell-based, human; conditions: EMTi and FGF19 (100 ng/mL)
Method: The medium was replaced with a new one on the third day of the culture, and the cells were differentiated with the HCM™ medium having added thereto the EMTi and FGF19 (100 ng/mL) until the sixth day of the culture.
The respective gene expression levels of ALB and CYP3A4 serving as liver cell markers after 9 days of two-dimensional culture were analyzed by a quantitative RT-PCR method.
(§2) The respective gene expression levels of ALB and CYP3A4 were measured by a quantitative RT-PCR method for the respective cells after their culture. A gene expression level when the hepatic organoid cells were cultured only with the HCM™ medium having added thereto the above-mentioned EMTi was defined as a vehicle. Comparison was performed while the gene expression level of ALB of the cells cultured with the HCM™ medium having added thereto the EMTi and FGF19 (100 ng/mL) on the sixth day of the culture was defined as 1.0.

hepatic organoid cells [2] = assay: Screening of monolayer culture conditions, sixth day of culture, quantitative RT-PCR (Example 3); format: cell-based, human; conditions: versus third day of culture
Method: Culture conditions up to the sixth day of culture when hepatic organoid cells were subjected to monolayer culture with a HCM™ medium having added thereto each of various factors were investigated in the same manner as in each of Examples 1 and 2.
The hepatic organoid cells were seeded at 3.0×10^5 cells/well on a collagen-coated 48-well plate, and were differentiated with the HCM™ medium having added thereto the EMTi and BMP7 (50 ng/mL) described in Example 2 until the third day of the culture. […] The respective gene expression levels of ALB and CYP3A4 serving as liver cell markers after 6 days of two-dimensional culture were analyzed by a quantitative RT-PCR method. As a comparative example, the gene expression levels of PHHs cultured only with the HCM™ medium and iPS-HLCs were also identified in the same manner as in Example 1.
as §2, with “cultured by using” for “cultured with the HCM™ medium having added thereto”, “and BMP7 (50” for “and FGF19 (100”, “ng/mL) in combination” for “ng/mL)”, “the third” for “the sixth”

hepatic organoid cells [3] = assay: Screening of monolayer culture conditions, third day of culture, EMTi and humoral factors, quantitative RT-PCR (Example 2); format: cell-based, human; conditions: combined use of EMTi and BMP7 (50 ng/mL); 72 hours; vehicle (EMTi only)=1.0

COc1ccc2[nH]c([S+]([O-])Cc3ncc(C)c(OC)c3C)nc2c1 (stereo not shown) [omeprazole]
gene expression level of CYP1A2 (ΔCt value) (CYP1A2): further enhanced

CCC1(c2ccccc2)C(=O)NC(=O)NC1=O [phenobarbital]
gene expression level of CYP2B6 (ΔCt value) (CYP2B6): further enhanced

fibroblast growth factor 19 [FGF19]
gene expression level of CYP3A4 increased by a factor of (hepatic organoid cells [1]; versus sixth day of culture): about 40 | gene expression level of ALB (hepatic organoid cells [1]; versus sixth day of culture (=1.0)): increasing tendency | gene expression level of CYP3A4 increased by a factor of (hepatic organoid cells [2]; EMTi and FGF19 (100 ng/ml)): about 95

B1: bone morphogenetic protein 7 (protein, UniProt P18075 293-431, looked up)
Bone morphogenetic protein 7: STGSKQRSQNRSKTPKNQEALRMANVAENSSSDQRQACKKHELYVSFRDLGWQDWIIAPEGYAAYYCEGECAFPLNSYMNATNHAIVQTLVHFINPETVPKPCCAPTQLNAISVLYFDDSSNVILKKYRNMVVRACGCH
notes: recombinant protein added as a humoral factor
gene expression level of CYP3A4 increased by a factor of (hepatic organoid cells [3]): 50 | gene expression level of CYP3A4 increased by a factor of (hepatic organoid cells [2]; EMTi and BMP7 (50 ng/ml)): about 50
